In patent publication US20220242953A1 (JIANGSU HENGRUI MEDICINE, published 2022):
Blank lines part the entries; values can stand above or below the binder they belong to.

Biological target: T1, Human CD3 antigen for detection (SinoBiological cat #CT038-H2508H); human CD3 epsilon-His and human CD3 … (human, UniProt P07766 23-126; P04234 22-105)
T1 construct: Bought antigen
Experiment: Biacore T200 SPR, bispecific antibody captured, CD3 antigen as analyte, 1:1 Langmuir fit
Method: The detection of antibody affinity to B7H3 and CD3 was performed in the form of capture antibody. BsAb was captured by CM5 biosensor chip (Cat. #BR-1005-30, GE) or Protein A (Cat. #29127556, GE) biosensor chip coupled with Anti-Human IgG Antibody (Cat. #BR-1008-39, Lot. #10260416, GE), and then each antigen flowed through the surface of the chip. The reaction signals were detected in real time with the Biacore T200 instrument to obtain the binding and dissociation curves. After the dissociation of each experimental cycle was completed, the chip was washed and regenerated with regeneration buffer Glycine1.5 (Cat #BR100354, GE) or 3 M MgCl₂ (from Human antibody capture kit, Cat. #BR100839, GE). The data were fitted with the (1:1) Langmuir model using GE Biacore T200 Evaluation version 3.0 software, and the affinity values were obtained.

T1 sequence (P07766 other isoform, or with tags, fused parts or gaps H2508H H2508H, chain 1 of 2): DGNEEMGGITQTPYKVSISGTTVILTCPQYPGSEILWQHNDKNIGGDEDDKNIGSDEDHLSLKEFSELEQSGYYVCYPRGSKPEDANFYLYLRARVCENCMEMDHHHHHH
T1 sequence (P04234 other isoform, or with tags, fused parts or gaps H2508H H2508H, chain 2 of 2): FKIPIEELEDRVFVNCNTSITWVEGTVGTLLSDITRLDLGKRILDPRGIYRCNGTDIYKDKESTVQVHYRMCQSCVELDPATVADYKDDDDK

B1: bispecific antibody 113 (AFF 3-2) (bispecific antibody)
chain 1: not shown
chain 2: QTVVTQEPSFSVSPGGTVTLTCGLSSGSVSTSHYPSWYQQTPGQAPRMLIYNTNTRSSGVPDRFSGSILGNKAALTITGAQADDESDYYCAIHVDRDIWVFGGGTKLTVLGGGGSGGGGSGGGGSQVQLVQSGGGVVQPGTSLRLSCAASGFIFSSSAMHWVRQAPGKGLEWVAVISYDGSNKYYVDSVKGRFTISRDNSKNTLYLQMNSLRAEDTAVYYCARSARLYASFDYWGQGALVTVSSGGGDKTHTCPPCPAPEAAGGPSVFLFPPKPKDTLMISRTPEVTCVVVDVSHEDPEVKFNWYVDGVEVHNAKTKPREEQYNSTYRVVSVLTVLHQDWLNGKEYKCKVSNKALPAPIEKTISKAKGQPREPQVCTLPPSREEMTKNQVSLSCAVKGFYPSDIAVEWESNGQPENNYKTTPPVLDSDGSFFLVSKLTVDKSRWQQGNVFSCSVMHEALHNHYTQKSLSLSPGK
notes: B7H3 bivalent CD3-B7H3 bispecific antibody, CD3 VH HRH-2
- Kd: 0.0772 µM

B4: bispecific antibody 177 (AFF3-7) (bispecific antibody)
chain 1: not shown
chain 2: B1 chain 2
notes: B7H3 bivalent CD3-B7H3 bispecific antibody, CD3 VH HRH-7
- Kd: 0.162 µM

The next binders have a lower Kd than those just listed; values first:

- Kd: 0.0697 µM
B2: bispecific antibody 154 (AFF3-4) (bispecific antibody)
chain 1: not shown
chain 2: B1 chain 2
notes: B7H3 bivalent CD3-B7H3 bispecific antibody, CD3 VH HRH-4

- Kd: 0.0407 µM
B3: bispecific antibody 131 (AFF3-1) (bispecific antibody)
chain 1: not shown
chain 2: B1 chain 2
notes: B7H3 bivalent CD3-B7H3 bispecific antibody, CD3 VH HRH-1; two-chain knob/hole Fc format
